# Paper PMC11098746 (2024)
# B1: ADP136 (protein)
# chain: MVRIAGALRTLLPLLAALLQASVEASGEIALCKTGFPEDVYSAVLSKDVHEGQPLLNVKFSNCNGKRKVQYESSEPADFKVDEDGMVYAVRSFPLSSEHAKFLIYAQDKETQEKWQVAVKLSLKPTLTEESVKESAEVEEIVFPRQFSKHSGHLQRQKRDWVIPPINLPENSRGPFPQELVRIRSDRDKNLSLRYSVTGPGADQPPTGIFIINPISGQLSVTKPLDREQIARFHLRAHAVDINGNQVENPIDIVINVIDMNDNRPEFLHQVWNGTVPEGSKPGTYVMTVTAIDADDPNALNGMLRYRIVSQAPSTPSPNMFTINNETGDIITVAAGLDREKVQQYTLIIQATDMEGNPTYGLSNTATAVITVTDVNDNPPEFTAMTFYGEVPENRVDIIVANLTVTDKDQPHTPAWNAVYRISGGDPTGRFAIQTDPNSNDGLVTVVKPIDFETNRMFVLTVAAENQVPLAKGIQHPPQSTATVSVTVIDVNENPYFAPNPKIIRQEEGLHAGTMLTTFTAQDPDRYMQQNIRYTKLSDPANWLKIDPVNGQITTIAVLDRESPNVKNNIYNATFLASDNGIPPMSGTGTLQIYLLDINDNAPQVLPQEAETCETPDPNSINITALDYDIDPNAGPFAFDLPLSPVTIKRNWTITRLNGDFAQLNLKIKFLEAGIYEVPIIITDSGNPPKSNISILRVKVCQCDSNGDCTDVDRIVGAGLGT
# modifications: bait human Fc-tagged dimer
# B2: ADP343 (protein)
# chain: MALASAAPGSIFCKQLLFSLLVLTLLCDACQKVYLRVPSHLQAETLVGKVNLEECLKSASLIRSSDPAFRILEDGSIYTTHDLILSSERKSFSIFLSDGQRREQQEIKVVLSARENKSPKKRHTKDTALKRSKRRWAPIPASLMENSLGPFPQHVQQIQSDAAQNYTIFYSISGPGVDKEPFNLFYIEKDTGDIFCTRSIDREKYEQFALYGYATTADGYAPEYPLPLIIKIEDDNDNAPYFEHRVTIFTVPENCRSGTSVGKVTATDLDEPDTLHTRLKYKILQQIPDHPKHFSIHPDTGVITTTTPFLDREKCDTYQLIMEVRDMGGQPFGLFNTGTITISLEDENDNPPSFTETSYVTEVEENRIDVEILRMKVQDQDLPNTPHSKAVYKILQGNENGNFIISTDPNTNEGVLCVVKPLNYEVNRQVILQVGVINEAQFSKAASSQTPTMCTTTVTVKIIDSDEGPECHPPVKVIQSQDGFPAGQELLGYKALDPEISSGEGLRYQKLGDEDNWFEINQHTGDLRTLKVLDRESKFVKNNQYNISVVAVDAVGRSCTGTLVVHLDDYNDHAPQIDKEVTICQNNEDFAVLKPVDPDGPENGPPFQFFLDNSASKNWNIEEKDGKTAILRQRQNLDYNYYSVPIQIKDRHGLVATHMLTVRVCDCSTPSECRMKDKSTRDVRPNVILG
# modifications: bait human Fc-tagged dimer
# B3: ADP353 (protein)
# chain: MAARWRFWCVSVTMVVALLIVCDVPSASAQRKKEMVLSEKVSQLMEWTNKRPVIRMNGDKFRRLVKAPPRNYSVIVMFTALQLHRQCVVCKQADEEFQILANSWRYSSAFTNRIFFAMVDFDEGSDVFQMLNMNSAPTFINFPAKGKPKRGDTYELQVRGFSAEQIARWIADRTDVNIRVIRPP
# modifications: bait human Fc-tagged dimer
# B4: ADP358 (protein)
# chain: MARSPGRAYALLLLLICFNVGSGLHLQVLSTRNENKLLPKHPHLVRQKRAWITAPVALREGEDLSKKNPIAKIHSDLAEERGLKITYKYTGKGITEPPFGIFVFNKDTGELNVTSILDREETPFFLLTGYALDARGNNVEKPLELRIKVLDINDNEPVFTQDVFVGSVEELSAAHTLVMKINATDADEPNTLNSKISYRIVSLEPAYPPVFYLNKDTGEIYTTSVTLDREEHSSYTLTVEARDGNGEVTDKPVKQAQVQIRILDVNDNIPVVENKVLEGMVEENQVNVEVTRIKVFDADEIGSDNWLANFTFASGNEGGYFHIETDAQTNEGIVTLIKEVDYEEMKNLDFSVIVANKAAFHKSIRSKYKPTPIPIKVKVKNVKEGIHFKSSVISIYVSESMDRSSKGQIIGNFQAFDEDTGLPAHARYVKLEDRDNWISVDSVTSEIKLAKLPDFESRYVQNGTYTVKIVAISEDYPRKTITGTVLINVEDINDNCPTLIEPVQTICHDAEYVNVTAEDLDGHPNSGPFSFSVIDKPPGMAEKWKIARQESTSVLLQQSEKKLGRSEIQFLISDNQGFSCPEKQVLTLTVCECLHGSGCREAQHDSYVGLGP
# modifications: bait human Fc-tagged dimer
# B5: ADP296 (protein)
# chain: MARERGALSRASRALRLAPFVYLLLIQTDPLEGVNITSPVRLIHGTVGKSALLSVQYSSTSSDRPVVKWQLKRDKPVTVVQSIGTEVIGTLRPDYRDRIRLFENGSLLLSDLQLADEGTYEVEISITDDTFTGEKTINLTVDVPISRPQVLVASTTVLELSEAFTLNCSHENGTKPSYTWLKDGKPLLNDSRMLLSPDQKVLTITRVLMEDDDLYSCMVENPISQGRSLPVKITVYRRSS
# modifications: bait human Fc-tagged dimer
# B6: ADP128 (protein)
# chain: MAAEGWIWRWGWGRRCLGRPGLLGPGPGPTTPLFLLLLLGSVTADITDGNSEHLKREHSLIKPYQGVGSSSMPLWDFQGSTMLTSQYVRLTPDERSKEGSIWNHQPCFLKDWEMHVHFKVHGTGKKNLHGDGIALWYTRDRLVPGPVFGSKDNFHGLAIFLDTYPNDETTERVFPYISVMVNNGSLSYDHSKDGRWTELAGCTADFRNRDHDTFLAVRYSRGRLTVMTDLEDKNEWKNCIDITGVRLPTGYYFGASAGTGDLSDNHDIISMKLFQLMVEHTPDEESIDWTKIEPSVNFLKSPKDNVDDPTGNFRSGPLT
# modifications: bait human Fc-tagged dimer
# B7: ADP262 (protein)
# chain: QNSQLQEELRGLRETFSNFTASTEAQVKGLSTQGGNVGRKMKSLESQLEKQQKDLSEDHSSLLLHVKQFVSDLRSLSCQMAALQGNGSERTCCPVNWVEHERSCYWFSRSGKAWADADNYCRLEDAHLVVVTSWEEQKFVQHHIGPVNTWMGLHDQNGPWKWVDGTDYETGFKNWRPEQPDDWYGHGLGGGEDCAHFTDDGRWNDDVCQRPYRWVCETELDKASQEPPLL
# modifications: bait human Fc-tagged dimer
# B8: ADP374 (protein)
# chain: MKETLYDEVLAKQKREQKLIPTKTDKKKAEKKKNKKKEIQNGNLHESDSESVPRDFKLSDALAVEDDQVAPVPLNVVETSSSVRERKKKEKKQKPVLEEQVIKESDASKIPGKKVEPVPVTKQPTPPSEAAASKKKPGQKKSKNGSDDQDKKVETLMVPSKRQEALPLHQETKQESGSGKKKASSKKQKTENVFVDEPLIHATTYIPLMDNADSSPVVDKREVIDLLKPDQVEGIQKSGTKKLKTETDKENAEVKFKDFLLSLKTMMFSEDEALCVVDLLKEKSGVIQDALKKSSKGELTTLIHQLQEKDKLLAAVKEDAAATKDRCKQLTQEMMTEKERSNVVITRMKDRIGTLEKEHNVFQNKIHVSYQETQQMQMKFQQVREQMEAEIAHLKQENGILRDAVSNTTNQLESKQSAELNKLRQDYARLVNELTEKTGKLQQEEVQKKNAEQAATQLKVQLQEAERRWEEVQSYIRKRTAEHEAAQQDLQSKFVAKENEVQSLHSKLTDTLVSKQQLEQRLMQLMESEQKRVNKEESLQMQVQDILEQNEALKAQIQQFHSQIAAQTSASVLAEELHKVIAEKDKQIKQTEDSLASERDRLTSKEEELKDIQNMNFLLKAEVQKLQALANEQAAAAHELEKMQQSVYVKDDKIRLLEEQLQHEISNKMEEFKILNDQNKALKSEVQKLQTLVSEQPNKDVVEQMEKCIQEKDEKLKTVEELLETGLIQVATKEEELNAIRTENSSLTKEVQDLKAKQNDQVSFASLVEELKKVIHEKDGKIKSVEELLEAELLKVANKEKTVQDLKQEIKALKEEIGNVQLEKAQQLSITSKVQELQNLLKGKEEQMNTMKAVLEEKEKDLANTGKWLQDLQEENESLKAHVQEVAQHNLKEASSASQFEELEIVLKEKENELKRLEAMLKERESDLSSKTQLLQDVQDENKLFKSQIEQLKQQNYQQASSFPPHEELLKVISEREKEISGLWNELDSLKDAVEHQRKKNNDLREKNWEAMEALASTEKMLQDKVNKTSKERQQQVEAVELEAKEVLKKLFPKVSVPSNLSYGEWLHGFEKKAKECMAGTSGSEEVKVLEHKLKEADEMHTLLQLECEKYKSVLAETEGILQKLQRSVEQEENKWKVKVDESHKTIKQMQSSFTSSEQELERLRSENKDIENLRREREHLEMELEKAEMERSTYVTEVRELKDLLTELQKKLDDSYSEAVRQNEELNLLKAQLNETLTKLRTEQNERQKVAGDLHKAQQSLELIQSKIVKAAGDTTVIENSDVSPETESSEKETMSVSLNQTVTQLQQLLQAVNQQLTKEKEHYQVLE
# modifications: bait human Fc-tagged dimer
# B9: ADP117 (protein)
# chain: MAAPGSARRPLLLLLLLLLLGLMHCASAAMFMVKNGNGTACIMANFSAAFSVNYDTKSGPKNMTFDLPSDATVVLNRSSCGKENTSDPSLVIAFGRGHTLTLNFTRNATRYSVQLMSFVYNLSDTHLFPNASSKEIKTVESITDIRADIDKKYRCVSGTQVHMNNVTVTLHDATIQAYLSNSSFSRGETRCEQDRPSPTTAPPAPPSPSPSPVPKSPSVDKYNVSGTNGTCLLASMGLQLNLTYERKDNTTVTRLLNINPNKTSASGSCGAHLVTLELHSEGTTVLLFQFGMNASSSRFFLQGIQLNTILPDARDPAFKAANGSLRALQATVGNSYKCNAEEHVRVTKAFSVNIFKVWVQAFKVEGGQFGSVEECLLDENSMLIP
# modifications: bait human Fc-tagged dimer
# B10: ADP352 (protein)
# chain: MGHLSAPLHRVRVPWQGLLLTASLLTFWNPPTTAQLTTESMPFNVAEGKEVLLLVHNLPQQLFGYSWYKGERVDGNRQIVGYAIGTQQATPGPANSGRETIYPNASLLIQNVTQNDTGFYTLQVIKSDLVNEEATGQFHVYPELPKPSISSNNSNPVEDKDAVAFTCEPETQDTTYLWWINNQSLPVSPRLQLSNGNRTLTLLSVTRNDTGPYECEIQNPVSANRSDPVTLNVTYGPDTPTISPSDTYYRPGANLSLSCYAASNPPAQYSWLINGTFQQSTQELFIPNITVNNSGSYTCHANNSVTGCNRTTVKTIIVTELSPVVAKPQIKASKTTVTGDKDSVNLTCSTNDTGISIRWFFKNQSLPSSERMKLSQGNTTLSINPVKREDAGTYWCEVFNPISKNQSDPIMLNVNYNALPQENGLSPG
# modifications: bait human Fc-tagged dimer
# B11: ADP118 (protein)
# chain: MARAAALLPSRSPPTPLLWPLLLLLLLETGAQDVRVQVLPEVRGQLGGTVELPCHLLPPVPGLYISLVTWQRPDAPANHQNVAAFHPKMGPSFPSPKPGSERLSFVSAKQSTGQDTEAELQDATLALHGLTVEDEGNYTCEFATFPKGSVRGMTWLRVIAKPKNQAEAQKVTFSQDPTTVALCISKEGRPPARISWLSSLDWEAKETQVSGTLAGTVTVTSRFTLVPSGRADGVTVTCKVEHESFEEPALIPVTLSVRYPPEVSISGYDDNWYLGRTDATLSCDVRSNPEPTGYDWSTTSGTFPTSAVAQGSQLVIHAVDSLFNTTFVCTVTNAVGMGRAEQVIFVRETPNTAGAGAT
# modifications: bait human Fc-tagged dimer
# Target: Circumsporozoite protein (CSP) (Plasmodium falciparum (isolate 3D7), UniProt Q7K740)
# Sequence (Q7K740 19-374): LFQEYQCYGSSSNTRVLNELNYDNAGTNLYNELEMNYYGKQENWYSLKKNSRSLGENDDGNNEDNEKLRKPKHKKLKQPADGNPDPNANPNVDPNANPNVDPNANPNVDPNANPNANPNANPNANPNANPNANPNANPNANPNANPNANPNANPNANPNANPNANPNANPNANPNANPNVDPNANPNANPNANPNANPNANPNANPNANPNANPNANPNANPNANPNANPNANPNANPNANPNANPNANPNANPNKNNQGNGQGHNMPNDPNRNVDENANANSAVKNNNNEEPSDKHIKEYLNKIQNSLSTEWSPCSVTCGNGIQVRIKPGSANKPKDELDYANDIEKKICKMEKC
# Assay: AVEXIS screen signal:noise (double-corrected)
row,Binder,binding score
1,B1,1.73
2,B2,0.814
3,B3,1.49
4,B4,1.38
5,B5,0.997
6,B6,1.03
7,B7,0.921
8,B8,0.547
9,B9,0.992
10,B10,1.31
11,B11,0.743
